# PMC2173703 (The Journal of Cell Biology, 2003)
# Like-named read-outs stand apart in the source and are kept apart here. Where no end group is shown, it is not given here. [ ]: non-standard residue; d: D form. pY = N[C@@H](Cc1ccc(OP(=O)(O)O)cc1)C(=O)O; pT = C[C@@H](OP(=O)(O)O)[C@H](N)C(=O)O
# T1: fluorescein-labeled Y644-phosphorylated PIPKIγ661 peptide
# T1 peptide: fluorescein-CDERSWV[pY]SPLHYSAR
# T2: fluorescein-labeled Y649-phosphorylated PIPKIγ661 peptide
# T2 peptide: fluorescein-CDERSWVYSPLH[pY]SAR
# B1: GST-talin head, wild type (human talin1 1–435) (domain or fragment)
# chain: MVALSLKISIGNVVKTMQFEPSTMVYDACRIIRERIPEAPAGPPSDFGLFLSDDDPKKGIWLEAGKALDYYMLRNGDTMEYRKKQRPLKIRMLDGTVKTIMVDDSKTVTDMLMTICARIGITNHDEYSLVRELMEEKKEEITGTLRKDKTLLRDEKKMEKLKQKLHTDDELNWLDHGRTLREQGVEEHETLLLRRKFFYSDQNVDSRDPVQLNLLYVQARDDILNGSHPVSFDKACEFAGFQCQIQFGPHNEQKHKAGFLDLKDFLPKEYVKQKGERKIFQAHKNCGQMSEIEAKVRYVKLARSLKTYGVSFFLVKEKMKGKNKLVPRLLGITKECVMRVDEKTKEVIQEWNLTNIKRWAASPKSFTLDFGDYQDGYYSVQTTEGEQIAQLIAGYIDIILKKKKSKDHFGLEGDEESTMLEDSVSPKKSTVLQQQ
# Experiments:
# [1] = test system: tyrosine phosphorylation of PIPKIγ661 (Src family kinases); format: cell-based; settings: HEK293T cells, 1 μM for 30 min at 37°C; Fig. 2 A
# [2] = test system: integrin–talin interaction; settings: ref Martel et al., 2001; cited from earlier work
# [3] = biological target: B1; assay: pull-down
# [4] = biological target: T1, fluorescein-labeled Y644-phosphorylated …; assay: fluorescence polarisation
# [5] = biological target: T2, fluorescein-labeled Y649-phosphorylated …; assay: fluorescence polarisation
# [6] = biological target: B1; assay: pull-down; remark: listed apart in the source
molecule,measurement,setting,value
CC(C)(C)n1nc(-c2ccc(Cl)cc2)c2c(N)ncnc21 [PP2],inhibition of basal and FAK-induced tyrosine phosphorylation of PIPKIγ661,[1],inhibited
"Phosphatidylinositol 4,5-bisphosphate [PI4,5P2]",increase of the integrin–talin binding affinity,[2],~10 fold
CDERSWVYSPLHYSAR [PIPKIγ661 peptide PN (nonphosphorylated)],binding result,[3],binds
B1,fold increase in binding affinity against the nonphosphorylated peptide,[4],~15 fold
same,fold increase in binding affinity against the nonphosphorylated peptide,[5],~15 fold
CMNAKWDTGENPIYKSA [β1-integrin peptide β1InPN (nonphosphorylated)],binding result,[6],binds
CMNAKWD[pT]GENPIYKSA [β1-integrin peptide β1InpT],binding result,[6],binds
